# In the nanobody polyreactivity screen of Harvey et al. (2022):
# Test: yeast display, Sf9 membrane polyspecificity reagent, FACS + sequencing; frameworks hold sequencing errors
# Outline: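 Nanobodies came from a synthetic yeast display library in Saccharomyces cerevisiae BJ5465, induced with galactose for 36–48 hours and stained for 1 hour at 4 °C with 10% biotinylated, detergent-solubilized Sf9 membrane reagent. Cells were enriched on streptavidin microbeads and then FACS-sorted, with low and high (top ~1%) gates set on anti-HA fluorescence for expression and streptavidin fluorescence for reagent binding. Each polyreactivity label reflects the gate a clone came from. Genes were amplified by colony PCR, sequenced by MiSeq 2 × 250 and filtered by CDR length.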
row,Sequence,polyreactivity (PSR sort gate)
1,QVQLVESGGGLVQAGGRLRLSCAATGSIFRGYAMGWYRQAPGKERELVAAISYRGGSTYYADSVKGRFTISRDNAKNTVYLQMNSLKPEDTAVDYWAAVYSHYWWFDYWGQGTQVTVSS,high polyreactivity
2,QVQLVESGGGLVQAGGRLRLSCAPSGIIFQQYAMGWYRQAPGKERELVAAISRGGTRTYYADSVKGRFTISRDNAKNTVYLLMNSLKPEDTAVDYCAADRGYFSYDYWGQGTQVTVSS,high polyreactivity
3,QVQLVESGGGLVQAGGRLRLSCAPSGSTFPPYAMGWYRQAPGKERELVADITRRGASTYYADSVKGRFTISRDNAKNTVYLQMNSLKPEDTAVYYCAARFYYQYYSGFDYWGQGTQVTVST,high polyreactivity
4,QVQLVESGGGLVQAGGRLRLSCPASGGTFGYNAMGWYRQAPGKERELVAAIRNGGSTYFADSVKGRFTISRDNAKNTVYLQMNSLKPEESAVYYCAAGPRGTGKYYWGQGTQVTVSS,high polyreactivity
5,QVQLVESGGGLVQAGGRLRLSCPASGRIFSLYAMGWYRQAPGKERELVAVISSTGVSSHYADSVKGRFTISRDNAKYTVYLLMNSLNPEDTAVYYCNARWSFPRWGYEYGYWGQGTQVTVSS,high polyreactivity
6,QVQLVESGGGLVQAGGRLRLSCPASGRTFRGYARGWYRQAPRKERELLAAITSGGSTNYADSVKGRFTISRDNAKNTVYLQKKSLKPEDTAVYYCAADSWFYGGEYKLGYYWGQGTQVSVSS,low polyreactivity
7,QVQLVESGGGLVQAGGRLRLSFAASGITFYVYTMGWYRQAPGKERELVPAISTTGSTNYADSVKGRFTISRDNAKNTVYLQMNSLKPEDTAVYYCNAKYYWLVFEYDYWGQGTQVTVSS,high polyreactivity
8,QVQLVESGGGLVQAGGRLRLSGAASGSIYFRNVMGWYRQAPGKERELVAAITWSGGGTYYPDSVKGRFTISRDNAKNTVYLQMNSLQPEDTAFYYCAARSPTIRYGAGYWGQVTQVTVSS,low polyreactivity
9,QVQLVESGGGLVQAGGRLRLSGAASGSTFGGYAMGWYRQAPGKERELVASINYGGDTTYYADSVKGRFTISRDNAKNTVYLQMNSLKPEDTAVYYCATDGTTPTPRYAFVRFDHWGQGTQVTVSS,low polyreactivity
10,QVQLVESGGGLVQAGGRLRLSSAASGRIFTNYAMGWYRQAPGKERELVARISKRGGSTYYADSVKGRLTFSRDNAKNTVYLQMNSLKPEDTAVYYCNAVSNLYYYWGQGTQVTVSS,high polyreactivity
11,QVQLVESGGGLVQAGGRLRLSSAASGSTFPYNAMGWYRQAPGKERELVADITSGSSTYYADSGKGRFTISRDNAKNTVYLQMNSLKPEDTAVYYCAATYFVWLNAGGRGYWGQGTQVTVSS,low polyreactivity
12,QVQLVESGGGLVQAGGRLRLTCAASGFIFGYYTMGWYRQAPGKERELVASITRGGSTNYADSVKGRFTISRDNAKNTVYLQMNSLKPEDTAVYYCAKRYAQTYSVSRYYYWGQGTQVTVSS,high polyreactivity
13,QVQLVESGGGLVQAGGRLRLTCAASGSIFGTYAMGWYRQAPGKERELVAAINSGDSTYYADSVKGRFTISRDNAKNTVYLQMNSLKPEDTAVYYCAAGRYWPGDYWGQGTQVTVSS,high polyreactivity
14,QVQLVESGGGLVQAGGRLRLTCAASGSIFWSNAMGLYRQAPGKERELVAAITSGGSTYYADSVKGRFTISRDNAKNTVYLQMNSLKPEDTAVYYCAARPEVRHQYRRYDYWGQGTQVTVSS,low polyreactivity
15,QVQLVESGGGLVQAGGRLSLSCAASGSIFSIYAMGWYRPSPGKERELVSGIRSTVSTNYADSVKGRFTISRDNAKNTVYLQMNSLKPEDTAVYYCATGTPTAPGNYWGQGTQVTVSS,low polyreactivity
16,QVQLVESGGGLVQAGGSHRLICAASGFIVSYHAMGWYRPAPGKESELVAAISSRGGSTYYADSVKGRFTISRDNAKNTVYLQMNSLKPEDTAVYYCATAGLTYRALRYYWGQGTQVTVSS,high polyreactivity
17,QVQLVESGGGLVQAGGSHRLSCAASGFTFVYYAMGWYRQAPGKERELVAAISARTSGTYYADSVKGRFTISRDNAKNTVYLQMNSLTPEDTAVYYCAAGYSYVYWSESAYDYWGQGTQVTVSS,low polyreactivity
18,QVQLVESGGGLVQAGGSHRLSCAASGFTIYGNAMGWYRQAPGKERELVAAISGSGGITYYADSVKGRFTISRDNAKNTVYLQMNSLKPEDTAVYYCAAEFWVSRSIWLYYYWGQGTQVTVSS,high polyreactivity
19,QVQLVESGGGLVQAGGSHRLSCAASGGTFRSNAMGWYRQAPGKERELVAAITSNGGRTYYADSVKGRFTISRDNAKNTVYLQMNSLKPEDTAVYYCAALGGYRRPLYGYDYWGQGTQVTVSS,high polyreactivity
20,QVQLVESGGGLVQAGGSHRLSCAASGGTFYYYTMGWYRQAPGKERELVAAISWSGGSTYYADSVKGRFTISRNNEKNTVYLQMKSLKPEDSAVYYCNAVYAGRFGSHYWGQCTQVTVSS,high polyreactivity
21,QVQLVESGGGLVQAGGSHRLSCAASGIIFRFYAMGCYRQAPGTERELVAAITSSGGSTYYADSVKGRFTISRDNAKNTVYLQMNSLNPEDTAVYYCYARVFSQSHYYYWGQGTQVTLSS,high polyreactivity
22,QVQLVESGGGLVQAGGSHRLSCAASGIISPFYAMGWYRQAPGKERELVADISTGGTTTYADSVKGRFTISRDNAKNTVYLQMNSLKPEDTAVYYCNAEVSLTYYWIVWASYDYWGQGTQVTVSS,low polyreactivity

row,Sequence,polyreactivity (PSR sort gate)
1,QVQLVESGGGLVQAGGSHRLSCAASGITFRRYAMGWYRQAPGKERELVARITDRGSTYYADSVKGRFTSSRDNAKNTVYLQMNSLKPEDTAVYYCAARGYRGLVQLRYGYWGQGTQVTVSS,high polyreactivity
2,QVQLVESGGGLVQAGGSHRLSCAASGITFRWYTMGWYRQAPGKERELVAAITGSGCTTYYADSVKGRFTISRDNAKNNVYLQMYSLKPEDSAVYYCAAEFYGLVYVPPYDYWGQGTQVTVSS,high polyreactivity
3,QVQLVESGGGLVQAGGSHRLSCAASGLNFGDNTMGWYRQAPGKERELVAAISGDVITTYADSVKGRFTISRDNAKNTVYLQMNSLKPEDTAVYYCNAEVKRYYSGLPQYFAGLGYWGQGTQVTVSS,low polyreactivity
4,QVQLVESGGGLVQAGGSHRLSCAASGLTFRKYAMGWYRQAPGKERELVATISRNGGSTYYADSVKGRFTISRDNAKNTVYLQMNSLKPEDTAVYYCAADYYTYDYAGYGDWGQGTQVTVSS,high polyreactivity
5,QVQLVESGGGLVQAGGSHRLSCAASGNTFYDYAMGWYRQAPGKERELVAAISSDGNTYYADSVKGRFTFSRDNAKKTVYLQMNSLKPVDTAVYYCAADAWRYYYLSWFGSIGFDYWGQGTQVTVSS,high polyreactivity
6,QVQLVESGGGLVQAGGSHRLSCAASGRIFDKYAMGWYRQAPGKERELVATITSSGGSTYYADSVKGRFTISRDNAKNTVYLQMNSLKPEDTAVYYCAALDRTGWGYDYWGQGTQVTVSS,low polyreactivity
7,QVQLVESGGGLVQAGGSHRLSCAASGRIFGPYTMGWYRQAPGKERELVAAISLSGGSTYYADSVKGRFTISRDNAKNTVYLQMNRLKAEDTAVYYCNADHPFPQYEGGSWGQGTQVTVSS,low polyreactivity
8,QVQLVESGGGLVQAGGSHRLSCAASGRIFSYNSMGWYRQAPGKERELVAAITSGGSTYYADSVKGRFTISRDNAKNTVYLQMNSLKPEDTAVYYCAVRSYYFVSRYTRTLYGFDYWGQGTQVTVSS,low polyreactivity
9,QVQLVESGGGLVQAGGSHRLSCAASGRIIHGYAMGWYRQAPGKERELVARISFSGGRTYYADSVKGRFTISRDNAKNTVYLQKNSLIPEDTAVYYCNVRVWSYYYPGRDSDYWGQGTQVTVSS,high polyreactivity
10,QVQLVESGGGLVQAGGSHRLSCAASGRPSAVNALGWSRQAPGKERELVAAITYGGDSTFYADSVKGRFTISRDNAKNTVYLQMNSLKPEDTAVYYCNADIWFIWHSFGWGYDYWGQGTQVTVSS,low polyreactivity
11,QVQLVESGGGLVQAGGSHRLSCAASGRTFRYNAMGWYRQAPGKERELVAAISGRGSSTYYADSVKGRFTISRDNAMNTVYLQMNSLKPEETAVYYCAALPASVRRPGWHDYWGQGTQVTVSS,high polyreactivity
12,QVQLVESGGGLVQAGGSHRLSCAASGRTFYRYPMGWYRQAPGKERELVATINSGTSTSYADSVKGRFTISRDNAKYTVYLQMNSLKPEDTAVYYCAAKLWTLSFSSRFGGMYYWGQGTQVTVSS,high polyreactivity
13,QVQLVESGGGLVQAGGSHRLSCAASGRTFYSYPMGWYRQAPGKEREIVAAIHWSGTTTYADSVKGRFTISRDNAKNTVYLEMNSLKPDATAVYYCAADRVSYIGAGWFDYWGQGTQVTVSS,high polyreactivity
14,QVQLVESGGGLVQAGGSHRLSCAASGSIFAIYAMGWYRQAPGKERELVAAISSSSGSTYYADSVKGRFTISRDNAKNTVYLQMNSLKPEDTAVYYCAAESGRRIKYWRGYYYWGQGTQVTVSS,low polyreactivity
15,QVQLVESGGGLVQAGGSHRLSCAASGSIFRSYAMGWYRQAPGKERELVASISRRGGSTYYADSVKGRFTISRDNAKNTVYLQMNSLIPEDTAVYYCAAVRYNSRVSTTPSEMYYWGQGTQVTVSS,low polyreactivity
16,QVQLVESGGGLVQAGGSHRLSCAASGSIFTINPMGWYRQAPGKERELVAAIRSGGGTNYADSVKGRFTISRDNAKNTVYLQMISLKPEDTAVYYCAADLWAGKYGEYDYWGQGTQVTVSS,high polyreactivity
17,QVQLVESGGGLVQAGGSHRLSCAASGSIFTWNGMGWYRQAPGKERELVAAISNGASTNYADSVKGRFTISRDNAKNTVYLQMNSLKPEDTEVDYCAAKSTGRYDYWGQGTQVTVSS,low polyreactivity
18,QVQLVESGGGLVQAGGSHRLSCAASGSIFVYNAMGCYIQAPGKERELVAGITFIGGSTYYADSVKGRFTISRDNAKNTVYLQMNSLKPEDTAVYYCNADVAPGIFYGYDSWGQGTQVTVSS,low polyreactivity
19,QVQLVESGGGLVQAGGSHRLSCAASGSTFKNYPMGGYRQAPGQEREFVAAINVSGARTYYADSVKGRFTISRDNAKNTVYLQMNSLKPEDTAVYYCAAYYSGVGYDYWGQGTQVTVSS,high polyreactivity
20,QVQLVESGGGLVQAGGSHRLSCAASGSTFLRYAMGWYRQAPGKERELVAAITASGGSTYYADSVKGRFTISRDNAKNTVYLQMNCLKAEDTAVYYCAADGRFIGKNSHDLWIYGYYYWGQGTQVTVSS,low polyreactivity
21,QVQLVESGGGLVQAGGSHRLSCAASGSTFQYYAMGWYRQAPGKERELVAAISKSGGITYYADSVKGRFTISRDYAKYTVYLQMNILKPEDTAVYYCNAYSASGYDYWGQGSQVTVSS,high polyreactivity
